Where two headings read alike, the source gives them in different places.
Columns and labels:
[1] = system: HIV strain HXB2 in MT4-X4 cells; assay: microbe, parasite or virus in culture; details: read-out: 50% inhibition concentration (IC50)
Description: The virus used in this assay was the laboratory adapted reference strain HXB2 virus using CXCR4 as co-receptor. Cells were infected with 100 TCID50/ml of virus in the presence of three-fold dilutions of Alphabody starting at 2.5 microM. […] MTT is reduced to formazan by living cells. Solubilization of the formazan crystals results in a colored product that can be measured by spectrophotometry at 540 nm. The cellular toxicity of the Alphabodies was monitored in the same assay using the same read-out, i.e. cell survival. As controls, the clinically approved T20 peptide (Fuzeon®, Roche) was used, as well as the CXCR4 antagonist, AMD3100 (Mozobile™, Genzyme).

HIV strain HXB2 in PBMC = assay: microbe, parasite or virus in culture; details: read-out: 50% inhibition concentration (IC50)
Procedure: PBMC were infected with 4000 TCID50/ml of virus and added to serial dilutions of scAB_C2 starting at 2 microM. After 7 days, the amplification of the virus in absence and presence of scAB_C2 was monitored by measuring the viral p24 concentration. The maximal p24 concentration was measured when PBMC and virus were incubated without inhibitory molecules and was set at 100% viral amplification. As controls, the clinically approved T20 (Fuzeon®, Roche) was used, as well as the CXCR4 antagonist, AMD3100 (Mozobile™, Genzyme).

[2] = Aggregation tendency (visual inspection, OD 340 nm, SEC profiles, SDS-PAGE); type: physicochemical; details: concentration ranges tested, typically up to 1 μM
Procedure: (§1) However, for these constructs, subcloning of synthetic genes was performed in the pET16b vector (Novagen), instead of in pET22b, in order to have an N-terminal 10-histidine tag.
as §1

[3] = target: HIV-1 gp41 HR2-derived biotinylated peptide C36 (HIV-1 HXB2); assay: ELISA, biotinylated peptide on streptavidin plates, sigmoid fit (apparent KD)
[4] = CD thermal denaturation scan in GuHCl; type: physicochemical; details: CD at 222 nm, 11 microM protein in 5 M GuHCl
Procedure: This coding sequence was subcloned into the pET22b vector (Novagen). […] The resulting construct was transformed into the host E. coli strain BL21(DE3) harboring a chromosomal copy of the T7 polymerase gene under control of the lacUV5 promoter (DE3 lysogen). Transformed cells were grown in medium supplemented with ampicillin and protein expression was induced by the addition of IPTG to exponentially growing cultures. Cells containing the expressed Alphabodies were collected by centrifugation and the pellets were resuspended in 50 mM Tris, 500 mM NaCl, pH 7.8. Cells were then disrupted by sonication and spun down for cell debris removal. The cleared supernatants were applied onto a HITrap IMAC HP column (GE Healthcare) loaded with Ni^2+ ions. Bound proteins were eluted by applying an imidazole gradient from 5 to 1000 mM. Alphabody-containing fractions were pooled, concentrated and loaded on a Superdex 75 size exclusion chromatography (SEC) column (GE Healthcare). During this final purification step, the buffer was changed to 50 mM Tris, 150 mM NaCl, pH 7.8.

[5] = MT4-X4 cells, HXB2 virus, 5 day, cell survival by MTT
[6] = PBMC, HXB2 virus, 7 day, viral p24

## enfuvirtide
[1]; [5]
  IC50: 6 nM
HIV strain HXB2 in PBMC; [6]
  IC50: 60 nM

## c1cc(CN2CCCNCCNCCCNCC2)ccc1CN1CCCNCCNCCCNCC1 [AMD3100]
[1]; Human immunodeficiency virus 1, HXB2, 120 h
  IC50: 54 nM
HIV strain HXB2 in PBMC; Human immunodeficiency virus 1, HXB2, PBMC, 168 h
  IC50: 97 nM

B1: scAB013_C2mut: monofunctional control of scAB_Bis with B-helix mutations only, SEQ ID No: 80 (protein)
chain: MGHHHHHHHHHHSSHIEGRHMSIEEIQKQIAAIQKQIAAIQKQIYRMTGGSGGSGGDMAMYAIQIAILIIQAQIQQIQNEIALMTLGSGGGGSGMSIEEIQKQIAAIQKQIAAIQKQIYRMTP
modifications: Alphabody helix sequence scAB013_C2mut
[2]
  tendency to aggregate: None of the three Alphabodies showed tendency to aggregate

B2: scAB_RsvC2: Alphabody with grafted HRSV HR2-like B-helix, SEQ ID No: 75 (protein)
chain: MSIEEIQKQIAAIQKQIAAIQKQIYRMTGGSGGSGGDVQIKIIQSQIYIIQSDILLIQAQISRMTGSGGGGSGMSIEEIQKQIAAIQKQIAAIQKQIYRMTP
modifications: Alphabody ′scAB_RsvC2′ sequence
[2]
  tendency to aggregate: None of the three Alphabodies showed tendency to aggregate

B3: scAB_RsvN1: Alphabody with grafted HRSV N-trimer-like binding groove, SEQ ID No: 71 (protein)
chain: SAEIQKIQSAIASTQQAIASLQNAIYVFTGGSGGSGGMSIEEIQKQIAAIQKQIAAIQKQIYRMTGSGGGGSGMSINEIKKQLLAINKQVVAIAQQVSAMSPSR
modifications: Alphabody ′scAB_RsvN1′ sequence
[2]
  tendency to aggregate: None of the three Alphabodies showed tendency to aggregate

B4: scAB_Env03mut: monofunctional control of scAB_Bis with A- and C-helix mutations only, SEQ ID No: 79 (protein)
chain: MGHHHHHHHHHHSSHIEGRHGSAIQQIQKAIATIQKAIAWIQKKIYMITGGSGGSGGGSIEEIQKQIAAIQKQIAAIQKQIYAITGSGGGGSGGDIQQIQKQIVAIMKQIVAIVKQISAITP
modifications: Alphabody helix sequence scAB_Env03mut
[2]
  tendency to aggregate: None of the three Alphabodies showed tendency to aggregate

B5: Alphabody scAB013_C2 with C-terminal Leu-Glu-(His)6 tag (designed binder)
chain: MSIEEIQKQIAAIQKQIAAIQKQIYRMTGGSSGGSMQMYTIQIQILIIQAQIQQIQNQIELMTLGGSSGGMSIEEIQKQIAAIQKQIAAIQKQIYRMTPLEHHHHHH
[3]
  Kd: > 10000 nM

B6: scAB013_C2: gp41 HR2-mimicking Alphabody, SEQ ID No: 69, expressed with C-terminal (His)6 tag (protein)
chain: MSIEEIQKQIAAIQKQIAAIQKQIYRMTGGSSGGSMQMYTIQIQILIIQAQIQQIQNQIELMTLGGSSGGMSIEEIQKQIAAIQKQIAAIQKQIYRMTP
modifications: C-terminal His6 tag; Alphabody ′scAB013_C2′ sequence
[4]
  transition temperature Tm: 72 °C
[1]; [5]
  IC50: 62 nM
HIV strain HXB2 in PBMC; [6]
  IC50: 218 nM

B7: scAB_Bis: optimized bispecific single-chain Alphabody binding gp41 HR2 and N-trimer, SEQ ID No: 78 (protein)
chain: MGHHHHHHHHHHSSHIEGRHGSAIQQIQKAIATIQKAIAWIQKKIYMITGGSGGSGGDMAMYAIQIAILIIQAQIQQIQNEIALMTLGSGGGGSGGDIQQIQKQIVAIMKQIVAIVKQISAITP
modifications: Alphabody helix sequence scAB_Bis
[2]
  tendency to aggregate: None of the three Alphabodies showed tendency to aggregate

B8: scAB_RsvN2: Alphabody with grafted HRSV N-trimer-like binding groove, SEQ ID No: 72 (protein)
chain: SAAIESTQQAIASIQNAIAVIQQKIYDLTGGSGGSGGMSIEEIQKQIAAIQKQIAAIQKQIYRMTGSGGGGSGMSLLEINKQVVAISQQISAITKQILRMKNTP
modifications: Alphabody ′scAB_RsvN2′ sequence
[2]
  tendency to aggregate: None of the three Alphabodies showed tendency to aggregate
